Data set [1] deals with T1, casein peptide αs1-casein(1-17) (UniProt P02662).
T1 sequence: RPKHPIKHQGLPQEVLN

Data set [2] concerns the target bovine serum albumin (bovine) (UniProt P02769). The data set is described as follows: dot blot, ~1 ug ligand on nitrocellulose, 125I-labelled binder, autoradiograph density divided by Ponceau S density, mean of two dots.
Data set [3] addresses type I collagen from calf skin (calf) (UniProt P02453). The description is as above.
Data set [4] has as its target type III mucin partially purified from porcine stomach (porcine). The data set is described as above.
Data set [5] deals with laminin from the basement membrane of Engelbreth-Holm-Swarm mouse sarcoma (mouse) (UniProt P19137). The data set is described as above.
The target in data set [6] is type IV collagen from human placenta (human) (UniProt P02462). The data set is described as above.
UniProt P02462, sequence (P02462 173-1440, chain 1 of 2): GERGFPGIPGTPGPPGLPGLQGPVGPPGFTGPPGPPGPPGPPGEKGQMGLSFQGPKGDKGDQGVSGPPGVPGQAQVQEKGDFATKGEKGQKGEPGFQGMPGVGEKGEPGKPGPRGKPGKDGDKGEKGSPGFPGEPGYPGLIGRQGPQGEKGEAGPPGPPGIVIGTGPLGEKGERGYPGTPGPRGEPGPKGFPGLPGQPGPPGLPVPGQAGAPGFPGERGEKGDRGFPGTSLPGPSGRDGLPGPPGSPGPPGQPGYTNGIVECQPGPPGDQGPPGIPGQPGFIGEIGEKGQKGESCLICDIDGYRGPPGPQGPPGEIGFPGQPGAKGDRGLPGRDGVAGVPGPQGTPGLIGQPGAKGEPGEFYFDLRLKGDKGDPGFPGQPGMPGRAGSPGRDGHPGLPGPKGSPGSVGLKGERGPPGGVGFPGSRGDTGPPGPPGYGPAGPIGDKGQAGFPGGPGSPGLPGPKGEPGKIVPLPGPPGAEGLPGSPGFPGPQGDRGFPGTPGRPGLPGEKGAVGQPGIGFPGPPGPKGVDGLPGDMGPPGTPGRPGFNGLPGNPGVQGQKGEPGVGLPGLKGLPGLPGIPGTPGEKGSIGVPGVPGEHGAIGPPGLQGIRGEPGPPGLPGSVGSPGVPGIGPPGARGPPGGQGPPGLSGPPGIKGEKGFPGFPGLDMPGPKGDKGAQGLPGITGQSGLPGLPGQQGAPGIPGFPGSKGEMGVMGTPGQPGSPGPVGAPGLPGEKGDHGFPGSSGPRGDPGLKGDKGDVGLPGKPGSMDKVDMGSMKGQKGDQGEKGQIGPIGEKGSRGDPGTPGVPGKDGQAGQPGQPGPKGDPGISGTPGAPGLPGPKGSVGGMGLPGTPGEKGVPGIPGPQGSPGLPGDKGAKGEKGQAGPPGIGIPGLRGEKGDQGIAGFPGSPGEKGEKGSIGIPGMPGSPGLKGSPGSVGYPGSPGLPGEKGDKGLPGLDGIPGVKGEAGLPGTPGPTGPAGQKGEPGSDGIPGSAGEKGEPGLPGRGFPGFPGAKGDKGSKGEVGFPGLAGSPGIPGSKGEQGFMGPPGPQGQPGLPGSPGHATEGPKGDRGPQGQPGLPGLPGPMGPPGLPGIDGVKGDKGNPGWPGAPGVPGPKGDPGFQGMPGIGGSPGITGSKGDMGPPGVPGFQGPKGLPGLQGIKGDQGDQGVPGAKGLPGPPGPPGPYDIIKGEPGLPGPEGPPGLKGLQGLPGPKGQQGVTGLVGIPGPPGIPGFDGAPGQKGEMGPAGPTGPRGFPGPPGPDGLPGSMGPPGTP
UniProt P02462, sequence (P08572 184-1484, chain 2 of 2, further chain): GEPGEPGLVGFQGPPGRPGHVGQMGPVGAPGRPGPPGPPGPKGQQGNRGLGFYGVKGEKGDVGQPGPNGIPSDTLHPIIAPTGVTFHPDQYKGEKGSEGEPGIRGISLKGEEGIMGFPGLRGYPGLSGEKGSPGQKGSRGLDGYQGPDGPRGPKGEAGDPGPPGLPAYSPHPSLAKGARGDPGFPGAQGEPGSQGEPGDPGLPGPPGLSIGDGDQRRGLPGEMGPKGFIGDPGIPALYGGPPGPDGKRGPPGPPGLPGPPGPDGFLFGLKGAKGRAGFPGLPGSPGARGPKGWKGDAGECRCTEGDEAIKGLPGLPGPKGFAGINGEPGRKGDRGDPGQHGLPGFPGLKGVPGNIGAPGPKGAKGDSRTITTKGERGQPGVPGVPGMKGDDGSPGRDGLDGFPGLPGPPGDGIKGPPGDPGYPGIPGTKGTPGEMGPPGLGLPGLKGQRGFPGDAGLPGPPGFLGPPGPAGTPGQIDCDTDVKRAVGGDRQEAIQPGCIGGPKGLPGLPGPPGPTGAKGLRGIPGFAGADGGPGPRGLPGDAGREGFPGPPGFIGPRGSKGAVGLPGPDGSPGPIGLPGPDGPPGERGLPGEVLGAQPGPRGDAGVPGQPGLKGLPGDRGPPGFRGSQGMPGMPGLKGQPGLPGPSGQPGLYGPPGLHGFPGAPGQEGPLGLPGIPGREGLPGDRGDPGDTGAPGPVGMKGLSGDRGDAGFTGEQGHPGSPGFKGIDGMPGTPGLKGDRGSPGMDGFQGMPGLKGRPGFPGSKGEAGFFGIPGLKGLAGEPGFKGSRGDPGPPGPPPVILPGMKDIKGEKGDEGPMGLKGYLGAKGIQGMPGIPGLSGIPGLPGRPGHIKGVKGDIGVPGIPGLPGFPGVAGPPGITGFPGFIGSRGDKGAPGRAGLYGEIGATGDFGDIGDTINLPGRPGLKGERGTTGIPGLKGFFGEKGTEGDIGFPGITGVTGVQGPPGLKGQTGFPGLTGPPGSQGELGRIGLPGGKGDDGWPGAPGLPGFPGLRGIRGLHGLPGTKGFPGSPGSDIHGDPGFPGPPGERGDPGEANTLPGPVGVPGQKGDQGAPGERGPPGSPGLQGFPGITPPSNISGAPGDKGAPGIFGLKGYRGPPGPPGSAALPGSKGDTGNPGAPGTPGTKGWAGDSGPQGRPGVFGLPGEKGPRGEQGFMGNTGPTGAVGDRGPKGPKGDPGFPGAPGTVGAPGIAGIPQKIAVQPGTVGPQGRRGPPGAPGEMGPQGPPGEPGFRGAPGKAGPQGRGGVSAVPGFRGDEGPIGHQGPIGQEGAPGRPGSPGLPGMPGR
Data set [7] deals with fibronectin from human plasma (human) (UniProt P02751). The data set is described as above.

The source of these data is patent US20020159976A1.

UniProt P02769, sequence (P02769 25-607 limits assumed): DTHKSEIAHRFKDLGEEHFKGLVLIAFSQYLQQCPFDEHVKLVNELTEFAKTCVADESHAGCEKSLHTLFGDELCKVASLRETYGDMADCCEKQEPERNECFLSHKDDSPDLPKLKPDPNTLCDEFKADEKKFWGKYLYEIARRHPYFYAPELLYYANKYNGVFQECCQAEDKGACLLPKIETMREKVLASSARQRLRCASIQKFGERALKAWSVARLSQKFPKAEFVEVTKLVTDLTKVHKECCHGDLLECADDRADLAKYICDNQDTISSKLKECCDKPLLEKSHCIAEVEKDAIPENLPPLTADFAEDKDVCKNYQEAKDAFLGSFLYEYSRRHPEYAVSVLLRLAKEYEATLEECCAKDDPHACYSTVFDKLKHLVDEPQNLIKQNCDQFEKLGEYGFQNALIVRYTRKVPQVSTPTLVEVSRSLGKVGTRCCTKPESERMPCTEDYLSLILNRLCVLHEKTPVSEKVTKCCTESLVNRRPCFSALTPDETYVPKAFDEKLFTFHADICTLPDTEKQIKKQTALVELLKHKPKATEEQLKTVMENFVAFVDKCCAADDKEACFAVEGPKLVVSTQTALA

Turning to HN001 peptidase pepO, the “height of the HPLC peak of unhydrolysed αs1-casein(1-17) after incubation with pepO-transformed HN001 (non-transformed: approximately 250 mAU)” value in data set [1] is recorded as “the major peak of unhydrolysed αs1-casein(1-17) had a height of approximately 150 mAU”.
Consider “mucus adhesion promoting (mapA) protein of Lactobacillus reuteri”, for which the Relative mapA Binding (relative density) in data set [2] is 0.76; in data set [3], 1.02; in data set [4] it was 2.57; in data set [5], 0.83; in data set [6], 0.78; in data set [7], 0.67.
